Laboratory results: article PMC4433160

T1: human beta defensin 2 (HBD2) (human, UniProt O15263 24-64)
T1 chain: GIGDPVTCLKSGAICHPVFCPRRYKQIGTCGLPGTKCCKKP

T2: human beta defensin 3 (HBD3) (human, UniProt P81534 23-67)
T2 chain: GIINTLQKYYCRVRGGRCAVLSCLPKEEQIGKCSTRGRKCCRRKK


Legend:
[1] = target: T1, human beta defensin 2 (HBD2); experiment: microscopy of complex
[2] = target: T2, human beta defensin 3 (HBD3); experiment: aggregate formation

Row | Binder | binding result [1] | binding result [2]
1 | GGTGCATCGATGCAGGGGGG (ssDNA, phosphorothioate at some nucleotides (underlining lost in text)) [FITC-CpG ODN D35] | binds | 
2 | ATCGACTCTCGAGCGTTCTC (ssDNA, phosphorothioate (underlining lost in text)) [CpG ODN K3] |  | binds
